Reference: the supplement of paper PMC10724198

How the values were obtained:
[1] = system: Saccharomyces cerevisiae; test: protein stability index of tFT-peptide fusion in wild type (PSI (0-1 scale)); higher = more stable (slower turnover); details: genetic background: wild type
Method: (§1)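 MPS profiling in S. cerevisiae of two library types built from selected 12-aa C-degron peptides (IN1, IN2, LN1, LN3, VN2, R1-R5, W1-W3, Atg1 and Rpa12 C-termini): saturation mutagenesis libraries and C-terminal +1 capping libraries (13 aa). Each peptide is fused to the C-terminus of a sfGFP-mCherry timer, after a GGGS linker. Cells are FACS-sorted into 8 mCherry/sfGFP bins and sequenced. PSI runs from 0 (unstable) to 1 (stable), measured once in wild type and in the das1Δ or doa10Δ background.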

[2] = system: Saccharomyces cerevisiae; test: protein stability index of tFT-peptide fusion in deletion strain of DAS1 (PSI (0-1 scale)); higher = more stable (slower turnover)
Method: as §1
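Wherever protein stability index of tFT-peptide fusion in deletion strain of DAS1 is given: PSI is a weighted mean of each variant's read distribution over the sorted stability bins, computed only for variants having over 10 reads in total.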
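Wherever protein stability index of tFT-peptide fusion in wild type is given: PSI derived as read-weighted mean over the 8 sorting bins, only variants exceeding 10 total reads kept, mCherry placed adjacent to the peptide and sfGFP distal.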

Sequence	protein stability index [1]	protein stability index [2]
FSMRWGFRYWVN	0.0673	0.646
FSMRWTFRHWVN	0.0837	0.625
FSMRWTFRYRVN	0.059	0.586
FSMRWTFRYSVN	0.154	0.53
FSMRWTFRYTVN	0.0631	0.476
FSMRWTFRYWEN	0.5	0.54
FSMRWTFRYWQN	0.106	0.614
FSMRWTFRYWVA	0.202	0.545
FSMRWTFRYWVK	0.49	0.45
FSMRWTFRYWVL	0.0913	0.457
FSMRWTFRYWVNY	0.114	0.471
FSMRWTFSYWVN	0.0568	0.497
FSMRWTGRYWVN	0.0626	0.587
FSMRWYFRYWVN	0.059	0.526
FSYRWTFRYWVN	0.0328	0.53
FTSCGYKFRTNN	0.207	0.676
FVMRWTFRYWVN	0.0377	0.272
ILIQPLPVQFLN	0.093	0.59
ISLAASFWRVVG	0.109	0.663
ISMRWTFRYWVN	0.059	0.481
KIHKKGQKQKIN	0.0466	0.494
KKHKDGQKQKIN	0.0686	0.602
KKHKEGQKQKIN	0.12	0.581
KKHKHGQKQKIN	0.0725	0.637

Sequence	protein stability index [1]	protein stability index [2]
KKHKKGFKQKIN	0.0758	0.589
KKHKKGQDQKIN	0.616	0.574
KKHKKGQKEKIN	0.124	0.606
KKHKKGQKQGIN	0.703	0.606
KKHKKGQKQKIA	0.128	0.597
KKHKKGQKQKIND	0.666	0.658
KKHKKGQKQKINH	0.653	0.668
KKHKKGQKQKINW	0.643	0.657
KKHKKGQPQKIN	0.0925	0.6
KKHKKKQKQKIN	0.0427	0.593
KKHKNGQKQKIN	0.145	0.622
KKHKSGQKQKIN	0.106	0.603
KKHYKGQKQKIN	0.0621	0.618
KKRKKGQKQKIN	0.111	0.571
KKYKKGQKQKIN	0.0672	0.613
KLIQPLPVQFLN	0.0526	0.574
KRWRVGLWRGAS	0.443	0.681
LGVYLSCVACIN	0.0766	0.166
LKDLRQKMNHQN	0.192	0.671
LKIERQKMNHQN	0.333	0.682
LKILEQKMNHQN	0.473	0.66
LKILHQKMNHQN	0.293	0.645
LKILLQKMNHQN	0.249	0.678
LKILREKMNHQN	0.183	0.678

Sequence	protein stability index [1]	protein stability index [2]
LKILRQEMNHQN	0.437	0.672
LKILRQKENHQN	0.365	0.681
LKILRQKMHHQN	0.231	0.706
LKILRQKMNDQN	0.552	0.687
LKILRQKMNHNN	0.239	0.688
LKILRQKMNHQA	0.19	0.629
LKILRQKMNHQNF	0.616	0.698
LKILRQKMNHQNH	0.655	0.69
LKILRQKMNHQS	0.23	0.68
LKILRQKMNHRN	0.493	0.653
LKILRQKNNHQN	0.425	0.687
LKILRQKSNHQN	0.581	0.688
LKILRQMMNHQN	0.176	0.692
LKILYQKMNHQN	0.259	0.679
LKIVRQKMNHQN	0.197	0.696
LVPYLSCVACIN	0.182	0.366
LVRYLSCVACIN	0.0691	0.316
LVVILSCVACIN	0.0224	0.0419
LVVNLSCVACIN	0.0111	0.172
LVVYESCVACIN	0.343	0.402
LVVYISCVACIN	0.0144	0.0366
LVVYKSCVACIN	0.218	0.415
LVVYLECVACIN	0.0187	0.0239
LVVYLGCVACIN	0.135	0.192

Sequence	protein stability index [1]	protein stability index [2]
LVVYLSCMACIN	0.0207	0.0753
LVVYLSCPACIN	0.469	0.513
LVVYLSCVACINS	0.029	0.0599
LVVYLSCVACLN	0.0163	0.0375
LVVYLSCVACVN	0.0169	0.0193
LVVYLSCVAFIN	0.0135	0.0206
LVVYLSCVAHIN	0.0148	0.0209
LVVYLSMVACIN	0.0159	0.0257
LVVYLSYVACIN	0.097	0.142
LVVYMSCVACIN	0.0151	0.0291
LVVYSSCVACIN	0.0132	0.0458
LVWYLSCVACIN	0.0133	0.0212
MSMRWTFRYWVN	0.0515	0.536
MVVYLSCVACIN	0.0181	0.0769
NKHKKGQKQKIN	0.122	0.562
NSLAASFWRVVG	0.147	0.679
PDFRNHLIKLLN	0.112	0.619
PDKREHLIKLLN	0.158	0.716
PDKRKHLIKLLN	0.171	0.583
PDKRNHCIKLLN	0.148	0.585
PDKRNHFIKLLN	0.102	0.603
PDKRNHLIKILN	0.137	0.663
PDKRNHLIKLAN	0.367	0.579
PDKRNHLIKLCN	0.22	0.583

Sequence	protein stability index [1]	protein stability index [2]
PDKRNHLIKLDN	0.602	0.613
PDKRNHLIKLFN	0.346	0.551
PDKRNHLIKLLL	0.332	0.615
PDKRNHLIKLLNM	0.145	0.659
PDKRNHLIKLLNS	0.117	0.669
PDKRNHLIKLLNW	0.571	0.684
PDKRNHLIKLLR	0.683	0.643
PDKRNHLIKLNN	0.447	0.598
PDKRNHLIKLWN	0.314	0.627
PDKRNHLILLLN	0.114	0.635
PDKRNHLKKLLN	0.101	0.616
PDKRPHLIKLLN	0.0997	0.678
PDKYNHLIKLLN	0.0777	0.59
PDMRNHLIKLLN	0.0863	0.757
PDYRNHLIKLLN	0.0727	0.607
PELAASFWRVVG	0.2	0.694
PKHKKGQKQKIN	0.0768	0.747
PSAAASFWRVVG	0.174	0.678
PSHAASFWRVVG	0.163	0.697
PSLAASFARVVG	0.622	0.684
PSLAASFRRVVG	0.665	0.656
